Reference: patent publication US20210403546A1 (published 2021)
Values belong to the binder of their own block, whether it stands above or below them.

Molecular target: human recombinant TGF-b1 (human, UniProt P01137 279-390)
Experiment: Biacore SPR

Chain of human recombinant TGF-b1 (P01137 279-390): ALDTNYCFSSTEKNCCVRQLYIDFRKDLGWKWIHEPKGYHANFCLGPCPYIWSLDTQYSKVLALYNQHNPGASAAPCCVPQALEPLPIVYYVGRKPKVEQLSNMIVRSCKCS

Kd: 0.639 nM
B1: 13A1_2F Fab (LCR13A1_VK_GLv1_05 + LCR13A1_VH_GLv1_03, stable Fab) (Fab, V domains shown)
VH: QVQLVQSGSVLAKPGASVKVSCKASGYTFTNYWMHWVRQAPGQGLEWIGTIYPGNSDTNYNQKFKDRAKLTAVTSTSTVYMELSSLRSEDTAVYYCTREDSRSLYYNGWDYFDYWGQGTLVTVSS
VL: DIVMTQSPDSLAVSLGERATISCRASESVDNYGISFLNWFQQKPGQPPKLLIYAASNQGSGVPSRFSGSGSGTDFTLNIHPLEAEDAATYYCQQSKEVPRTFGGGTKVEIK

Kd: 0.615 nM
B2: 13A1_2B Fab (LCR13A1_VH_GLv1_03_LCR13A1_VK_GLv3, stable Fab) (Fab, V domains shown)
VH: B1 VH
VL: DIVMTQSPDSLAVSLGERATINCKSSESVDNYGISFLNWFQQKPGKAPKLLIYAASNQGSGVPDRFSGSGSGTDFTLTISSLQAEDVAVYFCQQSKEVPRTFGGGTKLEIK
